Experimental data as given in publication PMC5553682.

Target: GFP-Cav3.1 pore mutant (human)
Test: FRET or BRET; live tsA-201 cells also expressing Kir2.1, exposed to high [K]o (50 mM); % change of the mKate:GFP ratio against time 0; the decrease was prevented by TTA-P2, mibefradil + Ni2+ or BAPTA-AM

- % change of FRET (mKate:GFP ratio) in high [K]o: 4.55%
Substance: mKate-CaM (from UniProt P0DP23 1-149) (natural protein)
